{"source": "IntAct's records for PubMed 21276203", "parents": {"B1": {"name": "Serine/threonine-protein kinase OXI1 (Arabidopsis thaliana (Mouse-ear cress)), Q9LSF1 (parent)", "chain": "MLEGDEKQSRALDFNRLEVLSLLGRGAKGVVFLVRDDDAKLLALKVILKEAIEKKKKGRESEDDEYKRVSFEQGVLSRFDHPLFPSLHGVLATDKVIGYAIDYCPGQNLNSLRKMQSESMFSDEIIRFYAAELVLALDYLHNQGIVYRDLKPDNVMIQENGHLMLIDFDLSTNLAPRTPQPSPSLSKPSPTMKRKKRLFRFTSFCNSGISPQESISVHSSSTLAVSDSSGEKSNSFVGTEEYVAPEVISGDGHDFAVDWWSLGVVLYEMLYGATPFRGSNRKETFYRILSKPPNLTGETTSLRDLIRRLLEKDPSRRINVEEIKGHDFFRGVDWEKVILVSRPPYIPAPDDGGDKGTDVNTKMDVENIVQEIFAARQEREKQSGDNNKNANMKIKDNTSGEWVKGLNNNHDLESDNNFLVF", "partner": "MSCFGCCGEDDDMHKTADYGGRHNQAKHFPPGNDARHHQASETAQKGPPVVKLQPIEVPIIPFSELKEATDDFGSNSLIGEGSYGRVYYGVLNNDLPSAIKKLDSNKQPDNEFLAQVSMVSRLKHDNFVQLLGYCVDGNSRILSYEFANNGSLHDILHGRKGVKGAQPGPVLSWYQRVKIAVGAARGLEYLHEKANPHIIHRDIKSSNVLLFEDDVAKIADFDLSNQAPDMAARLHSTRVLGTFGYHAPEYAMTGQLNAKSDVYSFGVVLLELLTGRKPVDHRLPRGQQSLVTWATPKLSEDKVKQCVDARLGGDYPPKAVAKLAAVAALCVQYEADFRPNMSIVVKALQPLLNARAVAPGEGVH"}}, "data": [{"variants_of": "B1", "conditions": "with y2706, O80719", "values": [{"variant": "K45R", "effect of a mutation on the interaction": "disrupting interaction"}]}]}
